Test results taken from PMC6160459, “Identification of Peptide Mimotope Ligands for Natalizumab” (Scientific Reports, 2018).
Read-outs that look alike come from different tables or passages of the source.

Tests used:
MS patients [1] = settings: AFFIRM study; cited from earlier work
Source text: Multiple sclerosis (MS) is a leading cause of neurologic disability that affects approximately 400,000 people in the US and 2.5 million worldwide. Natalizumab (marketed as Tysabri) is the top selling biologic drug indicated for MS and has been used to treat 177,800 patients worldwide as of November 2017[2]. […] Natalizumab is a humanized recombinant IgG4 mAb that targets the α4 chain of α4β1 integrin (also known as very late a ...

MS patients [2] = settings: cited from earlier work
Source text: The immunosuppressive activity of natalizumab has been associated with opportunistic infection by John Cunningham (JC) virus which may lead to progressive multifocal leukoencephalopathy (PML), a serious and often-fatal opportunistic brain infection. Approximately 56–58% of MS patients are positive for anti-JC virus antibodies, which puts them at increased risk for developing PML while on natalizumab[5]–[7]. The estimated incidence of PML in patients positive for anti-JC virus antibodies is 3.87 per 1,000 patients after at least 1 month of natalizumab treatment. It increases to 11.1 per 1,000 p ... || The standard dosing regimen for natalizumab is 300 mg by IV infusion every 4 weeks. […] It has been postulated that high serum concentrations may increase the risk of PML[10],[11]. […] Conversely, low drug concentrations have been associated with a lack of natalizumab efficacy. Multiple enzyme-linked immunosorbent assays (ELISAs) to detect levels of circulating natal ...

[3] = system: natalizumab neutralizing anti-Idiotype (anti-Id) Fab fragment; test: Anti-Id ELISA of heat exposed natalizumab samples; format: binding; settings: 60 °C for 30 m, 1 h or 2 h; GSH or non-GSH treated samples; 0.4% serum
Procedure: Wells of a Costar 96-well high binding plate were coated with 100 µl of natalizumab neutralizing anti-Idiotype (anti-Id) Fab fragment (Bio-Rad, Hercules CA) in phosphate-buffered saline (PBS; Corning Life Sciences) at 1 µg/ml overnight at 4 °C. The remining protocol proceeded as in peptide ELISA Protocol-1, with the following exceptions. 1) PBS/PBST was used in place of TBS/TBST (except for washes), 2) goat anti-human IgG HRP (Jackson Immunoresearch, West Grove PA) diluted 1:5000 was used as the secondary conjugate, and 3) TMB substrate was allowed to develop for 8–10 m.
(§1) Natalizumab was spiked into neat serum. The samples were split in half and 100 mM Glutathione reduced (GSH, Sigma-Aldrich, St. Louis MO) in H2O was added to one set to produce a final concentration of 3 mM GSH. Samples were then incubated overnight at 37 °C to induce arm exchange of IgG4 molecules. For ELISA assays, samples were subsequently diluted 250-fold in 2.5% BSA/TBST to produce a final serum concentration of 0.4%.
(§2) Samples containing GSH treated or non-GSH treated natalizumab in serum were heated at 60 °C for 30 m, 1 h, or 2 h. Control samples were held at 4 °C. For ELISA assays, samples were subsequently diluted 250-fold in 2.5% BSA/TBST to produce a final serum concentration of 0.4%.

[4] = standard dosing, 300 mg by IV infusion every 4 weeks; cited from earlier work
Procedure: The standard dosing regimen for natalizumab is 300 mg by IV infusion every 4 weeks. […] It has been postulated that high serum concentrations may increase the risk of PML[10],[11]. […] Conversely, low drug concentrations have been associated with a lack of natalizumab efficacy. Multiple enzyme-linked immunosorbent assays (ELISAs) to detect levels of circulating natal ...

[5] = Ntz-01 peptide ELISA of heat exposed natalizumab samples; format: binding; settings: 60 °C for 30 m, 1 h or 2 h; particularly for the GSH treated samples; 0.4% serum
Procedure: Wells of a NeutrAvidin-coated 96-well plate or 8-well strips (Thermo Fisher) were coated with 100 µl of biotinylated peptide at 7.5 µg/ml in molecular grade H2O (GE Healthcare Life Sciences, Logan, UT) for 1 h. Wells were washed five times with TBST. Wells were then blocked with 200 µl of 5% normal goat serum diluted from 10% normal goat serum (Thermo Fisher) in TBS for 1 h. Wells were washed five times with TBST. Antibody was spiked into 2.5% BSA in TBST (2.5% BSA/TBST) or into pooled defibrinated human AB serum (serum; Gemini, Woodland CA) diluted in 2.5% BSA/TBST. The final dilution of serum was 0.4% unless otherwise noted. Wells were incubated with 100 µl of antibody-spiked samples for 1 h and then washed five times with TBST. Bound natalizumab was detected with mouse anti-human IgG4 horse radish peroxidase (anti-IgG4-HRP; Abcam, Cambridge, MA) diluted 1:2000-1:5000 in TBST. Wells were incubated with 100 µl of diluted anti-IgG4-HRP for 30 m and then washed nine times with TBST. Turbo TMB substrate (Thermo Fisher) was added to the wells and allowed to develop for 12–15 m shielded from light. The reaction was stopped with 1 M H2SO4 (Thermo Fisher). Optical density (OD) was read at 450 nm on a Multiskan FC plate reader (Thermo Fisher) and data were analyzed with GraphPad Prism v5 or v7 software (Graphpad Software Inc, La Jolla CA).
Natalizumab was spiked into neat serum. […]

CD49d+ JeKo-1 cells = test: CD49d+ cell based binding assay of heat exposed natalizumab (flow cytometry); settings: 60 °C for 30 m, 1 h or 2 h; both GSH and non-GSH treated samples
Procedure: Natalizumab-spiked samples in serum were diluted 25-fold in 5% FBS/DPBS/0.05% NaN3. CD49d+ JeKo-1 cells were suspended in 5% FBS/DPBS/0.05% NaN3, and 25 µl of suspension (10^5 cells) were added to 25 µl of diluted sample and incubated for 20 m on ice. Washes, secondary incubation, collection, and analysis proceeded as in the CD49d+ Cell Based Peptide Competition Assay protocol.
as §1, §2

B1: natalizumab: humanized recombinant IgG4 mAb that targets the α4 chain of α4β1 integrin and a4β7 integrin (antibody, V domains shown)
VH: QVQLVQSGAEVKKPGASVKVSCKASGFNIKDTYIHWVRQAPGQRLEWMGRIDPANGYTKYDPKFQGRVTITADTSASTAYMELSSLRSEDTAVYYCAREGYYGNYGVYAMDYWGQGTLVTVSS
VL: DIQMTQSPSSLSASVGDRVTITCKTSQDINKYMAWYQQTPGKAPRLLIHYTSALQPGIPSRFSGSGSGRDYTFTISSLQPEDIATYYCLQYDNLWTFGQGTKVEIK
reduction of sustained physical disability relative to placebo (MS patients [1]): 42% | estimated incidence of PML (MS patients [2]; JC virus antibody positive patients with prior use of immunosuppressants and long-term use of natalizumab (24–48 months)): 11.1 per 1,000 patients | decrease of PML risk (MS patients [2]; extended interval dosing (infusion every 5–12 weeks instead of every 4 weeks)): 94% | estimated incidence of PML (MS patients [2]; patients positive for anti-JC virus antibodies, after at least 1 month of natalizumab treatment): 3.87 per 1,000 patients | changes in binding with heat exposure by anti-Id ELISA [3]: Changes in binding with heat exposure were not observed | variation of serum natalizumab concentrations [4]: over 100 fold | binding with increased heat exposure by Ntz-01 peptide ELISA [5]: Decreased binding | functional cell binding with increased heat exposure (CD49d+ JeKo-1 cells): Decreased cell binding
